Target: Recombinant hACE2 protein fused with mFc, residues 19-740 (human) (UniProt Q9BYF1)
Assay: SPR

Sequence of UniProt Q9BYF1 (Q9BYF1 19-740): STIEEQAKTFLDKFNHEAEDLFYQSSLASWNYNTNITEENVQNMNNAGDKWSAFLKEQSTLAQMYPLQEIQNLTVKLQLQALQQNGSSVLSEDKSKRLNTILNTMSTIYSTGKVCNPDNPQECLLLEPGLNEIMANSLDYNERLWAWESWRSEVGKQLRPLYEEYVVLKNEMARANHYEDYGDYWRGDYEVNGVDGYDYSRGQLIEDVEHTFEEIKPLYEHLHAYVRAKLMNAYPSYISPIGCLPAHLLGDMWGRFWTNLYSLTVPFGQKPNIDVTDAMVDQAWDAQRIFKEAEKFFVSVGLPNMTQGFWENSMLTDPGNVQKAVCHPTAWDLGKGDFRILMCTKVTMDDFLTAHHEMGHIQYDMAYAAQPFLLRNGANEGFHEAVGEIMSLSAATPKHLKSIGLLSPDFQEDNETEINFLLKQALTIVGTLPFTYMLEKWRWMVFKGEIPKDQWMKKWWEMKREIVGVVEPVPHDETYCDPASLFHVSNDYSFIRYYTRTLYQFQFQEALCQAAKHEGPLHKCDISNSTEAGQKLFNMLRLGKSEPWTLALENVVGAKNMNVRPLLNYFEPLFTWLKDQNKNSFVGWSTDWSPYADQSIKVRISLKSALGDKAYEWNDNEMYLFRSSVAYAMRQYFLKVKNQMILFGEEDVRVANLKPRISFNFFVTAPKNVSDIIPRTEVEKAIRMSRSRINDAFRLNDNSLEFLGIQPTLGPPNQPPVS

## Recombinant RsYN04 RBD protein, residues 309-527 (domain or fragment)
  Kd: 15.9 µM
